The values below come from article PMC7229829, “Distortion of double-stranded DNA structure by the binding of the restriction DNA glycosylase R.PabI” (Nucleic Acids Research, 2020).

Broadly, the stoichiometry N is a count of units in the complex or per binding partner.

This data set deals with the molecule itself. Description: SEC; Superdex 200 HR 10/30; 2 μM as a dimer loaded; 10 mM MES pH 6.0, 500 mM NaCl; oligomeric state estimated against standard proteins.

B1: R.PabI(Y68F-K154A) mutant (enzyme, Pyrococcus abyssi, UniProt Q9V2B6 8-226, looked up)
chain: EASVSFENGKIVVRLPITRPTSKIRVKKIENGVGIPVSTRKKSFPSDENLRDYYIEWQISFARDGKYDYELSRMVRLAHEHGILTYNDIYELLKFADDVKSYLEDKGIRRESTNEELYGFNIYEDVYPVAKKELPSGEFIGIVLKHAQRAVGYQSMVYVCIPLTNVEPSLAGRVARRNEVVKYEVPVDLMKELLKAFIIASETHKNDIVKFLRSIIGTS
notes: R.PabI, restriction DNA glycosylase of Pyrococcus abyssi, residues 8-226, cloned into pET26b; Mr = 25 287 printed; the vector pET26b can add a C-terminal His tag, but the printed Mr fits residues 8-226 without a tag; also called Y68F-K154A double mutant of R.PabI; source: E. coli Rosetta(DE3)pLysS, purified (heat 80°C, TOYOPEARL AF-Heparin, Mono S)
Regarding B1, the “stoichiometry N” value is 2.

B2: R.PabI(K154A-P27G-T28G) mutant (enzyme, Pyrococcus abyssi, UniProt Q9V2B6 8-226, looked up)
chain: EASVSFENGKIVVRLPITRGGSKIRVKKIENGVGIPVSTRKKSFPSDENLRDYYIEWQISYARDGKYDYELSRMVRLAHEHGILTYNDIYELLKFADDVKSYLEDKGIRRESTNEELYGFNIYEDVYPVAKKELPSGEFIGIVLKHAQRAVGYQSMVYVCIPLTNVEPSLAGRVARRNEVVKYEVPVDLMKELLKAFIIASETHKNDIVKFLRSIIGTS
notes: R.PabI, restriction DNA glycosylase of Pyrococcus abyssi, residues 8-226, cloned into pET26b; Mr = 25 219 printed; Called a dimer in the methods (loaded '2 μM as a dimer'); source: E. coli Rosetta(DE3)pLysS, purified (heat 80°C, TOYOPEARL AF-Heparin, Mono S)
Turning to B2, the binding result is reported as “binds”.

B3: R.PabI(K154A) mutant (enzyme, Pyrococcus abyssi, UniProt Q9V2B6 8-226, looked up)
chain: EASVSFENGKIVVRLPITRPTSKIRVKKIENGVGIPVSTRKKSFPSDENLRDYYIEWQISYARDGKYDYELSRMVRLAHEHGILTYNDIYELLKFADDVKSYLEDKGIRRESTNEELYGFNIYEDVYPVAKKELPSGEFIGIVLKHAQRAVGYQSMVYVCIPLTNVEPSLAGRVARRNEVVKYEVPVDLMKELLKAFIIASETHKNDIVKFLRSIIGTS
notes: R.PabI, restriction DNA glycosylase of Pyrococcus abyssi, residues 8-226, cloned into pET26b; Mr = 25 303 printed; Called a dimer in the methods (loaded '2 μM as a dimer'); PDB 3WAZ (cited) holds R.PabI(K154A) with product dsDNA; also called K154A mutant of R.PabI; source: E. coli Rosetta(DE3)pLysS, purified (heat 80°C, TOYOPEARL AF-Heparin, Mono S)
B3: the binding result was “binds”.

B4: R.PabI(Y68F) mutant (enzyme, Pyrococcus abyssi, UniProt Q9V2B6 8-226, looked up)
chain: EASVSFENGKIVVRLPITRPTSKIRVKKIENGVGIPVSTRKKSFPSDENLRDYYIEWQISFARDGKYDYELSRMVRLAHEHGILTYNDIYELLKFADDVKSYLEDKGIRRESTNEELYGFNIYEDVYPVAKKELPSGEFIGIVLKHKQRAVGYQSMVYVCIPLTNVEPSLAGRVARRNEVVKYEVPVDLMKELLKAFIIASETHKNDIVKFLRSIIGTS
notes: R.PabI, restriction DNA glycosylase of Pyrococcus abyssi, residues 8-226, cloned into pET26b; Mr = 25 344 printed; Called a dimer in the methods (loaded '2 μM as a dimer'); source: E. coli Rosetta(DE3)pLysS, purified (heat 80°C, TOYOPEARL AF-Heparin, Mono S)
In the case of B4, the binding result was “binds”.

B5: R.PabI(Y68F-P27G) mutant (enzyme, Pyrococcus abyssi, UniProt Q9V2B6 8-226, looked up)
chain: EASVSFENGKIVVRLPITRGTSKIRVKKIENGVGIPVSTRKKSFPSDENLRDYYIEWQISFARDGKYDYELSRMVRLAHEHGILTYNDIYELLKFADDVKSYLEDKGIRRESTNEELYGFNIYEDVYPVAKKELPSGEFIGIVLKHKQRAVGYQSMVYVCIPLTNVEPSLAGRVARRNEVVKYEVPVDLMKELLKAFIIASETHKNDIVKFLRSIIGTS
notes: R.PabI, restriction DNA glycosylase of Pyrococcus abyssi, residues 8-226, cloned into pET26b; Mr = 25 304 printed; Called a dimer in the methods (loaded '2 μM as a dimer'); also called Y68F-P27G double mutant; source: E. coli Rosetta(DE3)pLysS, purified (heat 80°C, TOYOPEARL AF-Heparin, Mono S)
Regarding B5, the binding result was “binds”.

B6: R.PabI(Y68F-P27G-T28G) mutant (enzyme, Pyrococcus abyssi, UniProt Q9V2B6 8-226, looked up)
chain: EASVSFENGKIVVRLPITRGGSKIRVKKIENGVGIPVSTRKKSFPSDENLRDYYIEWQISFARDGKYDYELSRMVRLAHEHGILTYNDIYELLKFADDVKSYLEDKGIRRESTNEELYGFNIYEDVYPVAKKELPSGEFIGIVLKHKQRAVGYQSMVYVCIPLTNVEPSLAGRVARRNEVVKYEVPVDLMKELLKAFIIASETHKNDIVKFLRSIIGTS
notes: R.PabI, restriction DNA glycosylase of Pyrococcus abyssi, residues 8-226, cloned into pET26b; Mr = 25 260 printed; Called a dimer in the methods (loaded '2 μM as a dimer'); also called Y68F-P27G-T28G triple mutant; source: E. coli Rosetta(DE3)pLysS, purified (heat 80°C, TOYOPEARL AF-Heparin, Mono S)
In the case of B6, the binding result is reported as “binds”.
